Assay results reported in publication PMC12871931, “The importin‐alpha superfamily engages in ethylene signaling by shuttling ETHYLENE INSENSITIVE 2 from the endoplasmic reticulum to the nucleus” (The Febs Journal, 2025).

Molecular target: TAMRA‐NOP‐1 (EIN2 NLS peptide, N‐terminally labeled with 5‐TAMRA) (Arabidopsis thaliana)
Assay: fluorescence polarisation; direct titration: TAMRA-NOP-1 constant at 250 nM, IMPα protein concentration varied; 50 μL samples; LS55 spectrometer; Kd by Logistic Fit in Origin; three independent measurements

Row | Kd [µM] | Substance
1 | 3.2 | ΔIBB_IMPα1 (importin α1 lacking the IBB domain), Arabidopsis thaliana, recombinant (domain or fragment)
2 | 3 | IMPα7_ΔIBB (importin α7 lacking the N-terminal importin β binding domain), Arabidopsis thaliana, recombinant (domain or fragment)
